Data taken from the Human Domainome abundance scans (Beltran et al. 2025).
± gives the uncertainty stated by the source.

B1: CD2-associated protein, residues 109 to 169; numbered along this chain, Q9Y5K6 (parent)
chain: KKRQCKVLFEYIPQNEDELELKVGDIIDINEEVEEGWWSGTLNNKLGLFPSNFVKELEVTD

Variants of: B1
Experiment: abundance fitness (aPCA) (normalised: wild type 0, dead -1); higher = more abundant; growth selection in yeast, the domain comes from the species named
Conditions: Homo sapiens

Abundance fitness, by site and new letter:
R3: T -0.109 ± 0.093 | W -0.372 ± 0.26 | C -0.38 ± 0.069 | M -0.228 ± 0.15 | A -0.664 ± 0.14 | L -0.178 ± 0.086 | I -0.409 ± 0.1 | H -0.122 ± 0.099 | K -0.33 ± 0.2 | N -0.388 ± 0.11 | P -0.572 ± 0.15
Y11: S -0.572 ± 0.15 | D -0.446 ± 0.36 | Q -0.936 ± 0.44 | W -0.318 ± 0.16 | K -0.415 ± 0.37 | H -0.286 ± 0.34 | L -0.951 ± 0.21 | M -0.897 ± 0.45 | T -0.458 ± 0.34 | N -0.344 ± 0.42 | V -0.715 ± 0.13 | P -0.481 ± 0.22 | A -0.539 ± 0.17 | R 0.072 ± 0.094 | E -0.73 ± 0.21 | G -0.855 ± 0.14 | F -0.767 ± 0.17
L8: T -0.192 ± 0.14 | G -0.133 ± 0.18 | K -0.304 ± 0.14 | D -0.267 ± 0.25 | N -0.417 ± 0.32 | M 0.33 ± 0.22 | I 0.118 ± 0.15 | W -0.49 ± 0.24 | E -0.088 ± 0.18 | P -0.596 ± 0.29 | H -0.401 ± 0.33 | S -0.082 ± 0.12 | A -0.34 ± 0.2 | Q -0.437 ± 0.23 | R -0.345 ± 0.17 | V -0.035 ± 0.11 | Y -0.288 ± 0.18
Q14: R -0.183 ± 0.15 | T 0.079 ± 0.16 | C -0.304 ± 0.24 | G -0.337 ± 0.18 | S -0.325 ± 0.25 | H -0.509 ± 0.42 | L -0.407 ± 0.23 | A -0.203 ± 0.39
K6: S -0.084 ± 0.046 | R 0.122 ± 0.054 | Q 0.191 ± 0.065 | C 0.088 ± 0.052 | Y 0.219 ± 0.055 | H -0.02 ± 0.077 | E -0.06 ± 0.11 | N -0.472 ± 0.09 | F -0.042 ± 0.059 | I 0.309 ± 0.054 | A 0.112 ± 0.053 | P -0.761 ± 0.094 | W -0.119 ± 0.086 | L 0.255 ± 0.046 | V 0.278 ± 0.041 | M 0.151 ± 0.08
F9: W -0.108 ± 0.15 | S 0.004 ± 0.087 | P -0.449 ± 0.14 | E 0.173 ± 0.13 | D -0.097 ± 0.17 | C -0.303 ± 0.22 | A 0.026 ± 0.11 | G -0.294 ± 0.11 | R 0.18 ± 0.075 | M 0.244 ± 0.1 | H 0.145 ± 0.35 | Q 0.083 ± 0.12 | T 0.222 ± 0.12 | I 0.131 ± 0.3 | L 0.283 ± 0.086
K1: F -0.351 ± 0.27 | G -0.122 ± 0.13 | Y -0.172 ± 0.28 | R -0.181 ± 0.12 | V -0.367 ± 0.26 | I -0.241 ± 0.4 | Q -0.316 ± 0.19 | C -0.232 ± 0.26 | T 0.113 ± 0.27 | D 0.195 ± 0.38 | S -0.249 ± 0.13 | N 0.265 ± 0.29 | M -0.184 ± 0.22
Q4: W -0.117 ± 0.25 | R 0.209 ± 0.17 | V 0.118 ± 0.22 | L 0.271 ± 0.21 | S 0.134 ± 0.22 | Y 0.503 ± 0.19 | E -0.539 ± 0.45
I12: E -0.122 ± 0.19 | V -0.218 ± 0.18 | S -0.138 ± 0.13 | R -0.253 ± 0.11 | Y 0.065 ± 0.23 | A -0.03 ± 0.13 | P -0.159 ± 0.37 | W -0.311 ± 0.15 | K -0.063 ± 0.19 | F -0.026 ± 0.21 | D -0.303 ± 0.23 | T 0.106 ± 0.14 | Q -0.267 ± 0.27
K2: P -0.293 ± 0.28 | F -0.51 ± 0.42 | A -0.197 ± 0.16 | R -0.334 ± 0.23 | G -0.007 ± 0.36 | N -0.227 ± 0.28 | T -0.423 ± 0.3 | Y -0.183 ± 0.41 | S -0.754 ± 0.3 | M 0.011 ± 0.21 | E 0.145 ± 0.3
C5: N -0.596 ± 0.083 | V 0.23 ± 0.056 | I -0.656 ± 0.11 | R -0.547 ± 0.11 | D -0.626 ± 0.14 | A 0.335 ± 0.062 | S -0.353 ± 0.056 | Y -0.097 ± 0.07 | G 0.235 ± 0.054 | H -1.01 ± 0.21 | P -0.945 ± 0.17 | E -0.688 ± 0.32 | W -0.743 ± 0.24 | M -0.419 ± 0.13 | Q -0.024 ± 0.1 | L -0.445 ± 0.072 | F -0.367 ± 0.073 | K -0.632 ± 0.19
E10: W -0.904 ± 0.31 | R -0.126 ± 0.066 | N -0.064 ± 0.16 | C -0.266 ± 0.23 | M -0.579 ± 0.34 | D 0.144 ± 0.14 | S 0.081 ± 0.076 | L -0.841 ± 0.16 | K -0.215 ± 0.12 | T -0.265 ± 0.12 | G -0.153 ± 0.091 | Q -0.146 ± 0.15 | A -0.333 ± 0.15
P13: R 0.026 ± 0.094 | M -0.812 ± 0.38 | E -0.747 ± 0.39 | L -0.903 ± 0.34 | S -0.444 ± 0.21 | G -0.547 ± 0.13 | W -0.881 ± 0.29 | K -0.233 ± 0.25
